Results taken from patent US20250009876A1 (H LUNDBECK A S, published 2025).
Where two headings read alike, the source gives them in different places.

T1: PACAP38 (Pituitary Adenylate Cyclase-Activating Polypeptide, 38 amino acids) (human, not fully specified; the C-terminal lysine is amidated)
T1 construct: In the HTRF and PC-12 cell assays the peptide was N-terminally or C-terminally biotinylated; unlabelled in SPR; also called human PACAP38; huPACAP (1-38)
T1 peptide: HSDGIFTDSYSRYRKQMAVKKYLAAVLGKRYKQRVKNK

T2: PACAP27 (Pituitary Adenylate Cyclase-Activating Polypeptide, 27 amino acids) (human, the C-terminal leucine is amidated)
T2 construct: also called human PACAP27
T2 peptide: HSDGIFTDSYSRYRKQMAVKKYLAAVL

T3: VIP (Vasoactive Intestinal Peptide) (human)
T3 construct: also called human VIP
T3 peptide: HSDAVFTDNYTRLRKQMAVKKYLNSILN

T4: PAC1-R on PAC1-R-expressing PC-12 cells (UniProt P32215 20-523)
T4 construct: whole, on cells; also called PAC1 receptor
T4 sequence (looked up): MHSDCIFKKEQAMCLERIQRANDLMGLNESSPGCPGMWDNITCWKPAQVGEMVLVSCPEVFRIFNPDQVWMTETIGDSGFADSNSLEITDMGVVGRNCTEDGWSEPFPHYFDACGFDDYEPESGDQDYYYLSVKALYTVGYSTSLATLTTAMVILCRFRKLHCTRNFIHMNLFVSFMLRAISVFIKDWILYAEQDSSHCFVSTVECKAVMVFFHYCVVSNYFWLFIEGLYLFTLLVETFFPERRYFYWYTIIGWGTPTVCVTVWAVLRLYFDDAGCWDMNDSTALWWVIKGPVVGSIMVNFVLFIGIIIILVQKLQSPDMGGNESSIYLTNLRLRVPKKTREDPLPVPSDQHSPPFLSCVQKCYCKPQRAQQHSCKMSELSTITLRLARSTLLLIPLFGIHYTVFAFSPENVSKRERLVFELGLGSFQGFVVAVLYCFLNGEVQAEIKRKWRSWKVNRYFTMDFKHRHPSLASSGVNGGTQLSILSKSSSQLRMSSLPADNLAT


Columns and labels:
[1] = biological target: T1, PACAP38 (Pituitary Adenylate …); assay: SPR (ProteOn XPR36), antibody amine-coupled, peptide analyte, 1:1 Langmuir fit
Method: (§1) Binding affinities of monoclonal antibodies for human PACAP were estimated using SPR on the PROTEON™ XPR36 (Bio-Rad, Hercules, CA). Antibody was immobilized to the surface of general amine coupling (“GLC” or “GLM”) Chips (Bio-Rad, Hercules, CA). […] Antigen (ranging from 1.23 nM to 100 nM) was typically run sequentially with association times of 2-4 minutes and dissociation times of 3-120 minutes grouped with the PROTEON™ Manager Software (v3.1.0.6 (Bio-Rad, Hercules, CA)) and fitted using a 1:1 Langmuir binding model. Surfaces were regenerated between analyte queries using 0.85% Phosphoric Acid.

[2] = biological target: T2, PACAP27 (Pituitary Adenylate …); assay: as above
Method: as §1

[3] = biological target: T1, PACAP38 (Pituitary Adenylate …); assay: inhibition of 30 nM biotinylated PACAP38 binding to PAC1-R-expressing PC-12 cells, Eu-streptavidin TRF
Method: To identify antibodies that block PACAP38 binding to PAC1-R-expressing cells, adherent PC-12 cells (ATCC, Manassas, VA) expressing PAC1-R were used in a Europium-based PAC1-R-expressing cells binding assay. Antibody solutions were incubated with N-terminal biotinylated PACAP38 at 10× the final concentration (100 nM or 30 nM) for 1 hr, then added to PC-12 cells that were plated 24 hrs prior in black clear bottom 96 well plates (COSTAR™, Corning Incorporated, Corning, NY) and further incubated for 1 hr at room temperature. After three washes, the cells were incubated with 20 μl Europium-labeled streptavidin (PerkinElmer, Waltham, MA) for 1 hr at room temperature. Cells were washed three times, then 20 μl DELFIA® Enhancement solution (PerkinElmer, Waltham, MA) was added to each well and incubated for 15 minutes with gentle shaking. Plates were read (Time Resolved Fluorescence (“TRF”)) on SPECTRAMAX® (Molecular Devices, Sunnyvale, CA) plate reader.
FIGS. 14A-14H are representative of the inhibition curves obtained by this method (results are shown for Ab10, Ab20, Ab21, Ab1.H, Ab10.H, Ab21.H, Ab22, and Ab23, respectively) wherein the PAC1-R expressing cells were PC-12 cells.

[4] = biological target: T1, PACAP38 (Pituitary Adenylate …); assay: cell-based or functional assay
[5] = biological target: T1, PACAP38 (Pituitary Adenylate …); assay: cell-based or functional assay
[6] = biological target: T1, PACAP38 (Pituitary Adenylate …); assay: cell-based or functional assay
[7] = biological target: T2, PACAP27 (Pituitary Adenylate …); assay: cell-based or functional assay
[8] = biological target: T3, VIP (Vasoactive Intestinal Peptide); assay: SPR (ProteOn XPR36), antibody amine-coupled, peptide analyte, 1:1 Langmuir fit; SPR, direct binding of VIP to the antibody; weak, KD 3.1E-07 M
[9] = biological target: T1, PACAP38 (Pituitary Adenylate …); assay: HTRF binding assay, antibody dilution series on 35 nM biotinylated PACAP38
Method: In parallel, 10 μl of an antibody dilution series (highest final concentration of 100 nM) were incubated with 10 μl of N-terminal or C-terminal biotinylated PACAP38 (35 nM final) alone, or in combination with either PACAP27 (350 nM final) or VIP (350 nM final), i.e., 10× PACAP27 or 10× VIP, respectively, in a HTRF plate. 20 μl of Eu³⁺ cryptate labeled anti-hu Fc donor and 20 μl of d2-labeled streptavidin acceptor were added to each well and incubated for 1 hour at room temperature. Fluorescence was measured at 620 and 665 nm with a delay of 300 usec.
EC₅₀ values, i.e. the concentration of an antibody that yields a response halfway between the baseline and the maximum value within a specified time period, were computed for each antibody based upon their binding curves and are shown in Table 1 below. […] A humanized form of antibody Ab1 identified by an appended “.H”, i.e., Ab1.H also bound PACAP38 with high affinity.

[10] = biological target: T4, PAC1-R on PAC1-R-expressing PC-12 cells; assay: cell surface binding assay (DELFIA TRF): antibody pre-incubated with PACAP38, added to PAC1-R-expressing PC-12 cells, detected with Eu anti-human IgG
Method: Cells were initially seeded at 1×10⁵ cells/well in a solution of complete RPMI (“cRPMI”: RPMI medium supplemented with 10% sterile heat-inactivated FBS and 1% sterile antibiotic/antimycotic)+10% FBS, and the plates were allowed to incubate overnight at 37° C. On the day of the binding assay, antibodies at an initial concentration of 15 μg/ml were diluted at a 1:3 ratio in DELFIA® binding buffer (50 mM Tris, 150 mM NaCl, 0.1% azide, 2% horse serum) (Perkin-Elmer, Waltham, MA) to a total volume of 60 μL in a separate 96 well round bottom plate. PACAP38 was prepared for the binding assay by diluting it in DELFIA® binding buffer to a concentration of 200 nM, and then 60 μl of the diluted PACAP38 was added to each of the antibody-containing wells to form antibody: antigen complexes. Following addition of PACAP38, the antibody: antigen complexes were incubated at room temperature on a shaker for 1 hour. Separately, the PC-12 cells were prepared for addition of antibody: antigen complexes by washing the cells two times with DELFIA® wash buffer (50 mM Tris, 150 mM NaCl, 0.1% Azide) (Perkin-Elmer, Waltham, MA). After washing the cells two times and following the 1 hour room temperature incubation of the antibody: antigen complexes, 50 μl of the antibody: antigen complex was added to each well containing cells. The mixtures of cells and antibody: antigen complexes were then incubated for 30 minutes at room temperature. Following this 30 minute incubation, each mixture was washed two times with DELFIA® wash buffer (Perkin-Elmer, Waltham, MA).
DELFIA® Europium labeled anti-human IgG detection reagent (Cat #1244-330, Perkin-Elmer, Waltham, MA) was diluted to a concentration of 300 ng/ml in DELFIA® Binding Buffer. Following dilution, 50 μl of the anti-human IgG detection reagent was added to each well containing cells, and a 30 minute incubation at room temperature followed this addition of IgG detection reagent. After completion of the 30 minute room temperature incubation, the cells were then washed two times with DELFIA® wash buffer. Next, 50 μl of DELFIA® Enhancement Solution (Cat #1244-105, Perkin-Elmer, Waltham, MA) was added to each well containing cells for a final 15 minute room temperature incubation with shaking. The plates were then read (TRF, excitation 330 nm, emission 620 nm) on a SPECTRAMAX® (Molecular Devices, Sunnyvale, CA) plate reader.

[11] = biological target: T2, PACAP27 (Pituitary Adenylate …); assay: inhibition of 0.1 nM 125I-PACAP27 binding to membranes with human PAC1-R long isoform, filter binding
Method: To identify antibodies that block PACAP27 binding to PAC1-R, antibodies at an initial concentration of 30 nM were diluted in incubation buffer (50 mM Hepes pH 7.4, 1 mM CaCl₂, 5 mM MgCl₂, 0.2% BSA) and serial 1:3 dilutions were performed. Antibody dilutions (30 nM, 10 nM, 3 nM, 1 nM, 0.3 nM, 0.1 nM, 0.03 nM, 0.01 nM, 0.003 nM and 0.001 nM) were then mixed and pre-incubated at 25° C. for 30 minutes with 0.1 nM of ¹²⁵I-labelled PACAP27 in incubation buffer. The antibody: ¹²⁵I-labelled PACAP27 mixture was then added to 0.5 μg aliquots of cell membranes derived from Chem-1 cells expressing human recombinant PAC1-R long isoform in incubation buffer. The mixture was then incubated for 1 hour at 25° C. Following incubation, the samples were filtered and washed. Afterward, the filters were counted to quantitate ¹²⁵I-labelled PACAP27. As an experimental control, non-specific binding to the cell membranes was estimated using 0.1 μM of […] PACAP27.

[12] = biological target: T3, VIP (Vasoactive Intestinal Peptide); assay: SPR (ProteOn XPR36), antibody amine-coupled, peptide analyte, 1:1 Langmuir fit
[13] = biological target: T1, PACAP38 (Pituitary Adenylate …); assay: cell-based or functional assay
[14] = biological target: T2, PACAP27 (Pituitary Adenylate …); assay: cell-based or functional assay

| Kd [1] [nM] | koff [1] [s⁻¹] | kon [1] [M⁻¹ s⁻¹] | Kd [2] [nM] | koff [2] [s⁻¹] | kon [2] [M⁻¹ s⁻¹] | IC50 [3] [nM] | Inhibition of 1 nM PACAP38-induced human VPAC2-R mediated cAMP increase IC50 (pM) [4] [pM] | Inhibition of 5 nM PACAP38-induced human VPAC1-R mediated cAMP increase IC50 (pM) [5] [pM] | Inhibition of 0.1 nM PACAP38-induced PAC1-R mediated cAMP increase IC50 (pM) [6] [pM] | Inhibition of 0.1 nM PACAP27-induced PAC1-R mediated cAMP increase IC50 (pM) [7] [pM] | IC50 [11] [nM] | Kd [12] [nM] | koff [12] [s⁻¹] | kon [12] [M⁻¹ s⁻¹] | Binder | other results |
| --- | --- | --- | --- | --- | --- | --- | --- | --- | --- | --- | --- | --- | --- | --- | --- | --- |
| ≤ 0.027 | ≤ 1e-05 | 370000 | ≤ 0.013 | ≤ 1e-05 | 790000 | 20.3 | 5220 | 2850 | 239 | 140 |  |  |  |  | Ab21 (antibody, human IgG1, kappa, N297A, V domains shown, Full-length anti-PACAP antibody; rabbit/human chimeric) VH: QSVEESGGRLVTPGTPLTLTCTVSGIDLSSYYMTWVRQAPGKGLEWVGFIDAGGSAYYATWAKGRFTISKASTTVDLKITSPTTEDTATYFCARDLDLWGPGTLVTVSS VL: AAVLTQTPSPVSAAVGGTVSISCKSSESVYGDYLAWFQQKPGQPPKQLIYDASTLASGVPSRFKGSGSGTQFTLTISGVQCDDAATYYCAGGYVSAGVAFGGGTEVVVKR | Kd [8]: 310 nM; koff [8]: 0.00054 s⁻¹; kon [8]: 1700 M⁻¹ s⁻¹; EC50 [9]: 0.84 nM |
| ≤ 0.022 | ≤ 1e-05 | 450000 | ≤ 0.059 | ≤ 1e-05 | 170000 |  | 301 | 1520 |  |  | 0.21 | 91 | 0.013 | 140000 | Ab10.H3 (antibody, human IgG1, kappa, N297A, Full-length humanized variant of Ab10) heavy: not shown light: DIQLTQSPSTLSASVGDRVTITCQSSESVYGNYLAWFQQKPGKAPKFLIYEASKLESGVPSRFSGSGSGTEFTLTISSLQPDDFATYYCAGGDISEGVAFGGGTKVEIKRTVAAPSVFIFPPSDEQLKSGTASVVCLLNNFYPREAKVQWKVDNALQSGNSQESVTEQDSKDSTYSLSSTLTLSKADYEKHKVYACEVTHQGLSSPVTKSFNRGEC | binding result [10]: no binding (tested: about 70 nM); Inhibition of 0.1 nM PACAP38-induced PAC1-R mediated cAMP increase IC50 (pM) [13]: 30.7 pM; Inhibition of 1 nM PACAP27-induced PAC1-R mediated cAMP increase IC50 (pM) [14]: 321 pM |
| ≤ 0.021 | ≤ 1e-05 | 480000 | ≤ 0.016 | ≤ 1e-05 | 630000 | 12.7 | 1510 | 2100 | 246 | 204 | 0.39 | 440 | 0.059 | 140000 | Ab21.H (antibody, human IgG1, kappa, N297A, Full-length humanized variant of Ab21) heavy: not shown light: DAQLTQSPSTLSASVGDRVTITCKSSESVYGDYLAWFQQKPGKAPKQLIYDASTLASGVPSRFSGSGSGTEFTLTISSLQPDDFATYYCAGGYVSAGVAFGGGTKVEIKRTVAAPSVFIFPPSDEQLKSGTASVVCLLNNFYPREAKVQWKVDNALQSGNSQESVTEQDSKDSTYSLSSTLTLSKADYEKHKVYACEVTHQGLSSPVTKSFNRGEC |  |
